The record followed here is patent US20240301069A1 (GUANGDONG FAPON BIOPHARMA, published 2024).

Test [1] addresses T1, human PD-L1 on IFNγ-stimulated A375 cells (human, UniProt Q9NZQ7 19-290).
T1 construct: whole, on cells; PD-L1 of the A375 cells themselves; also called PD-L1 membrane protein
The test can be described thus: flow cytometry, antibody titration on human IFNγ-stimulated A375 cells, MFI-APC. Here is the method: An experimental process included the following.
50 ng/mL of the human IFNγ (R&D) was used to stimulate the expression of human PD-L1 on human melanoma cells A375 (Shanghai cell bank) overnight; on the next day, 0.25% pancreatin (Gibco) was used to digest the A375 cells; after washing was performed once with DPBS, live cell density was adjusted to 2E6/mL; and the mixture was added into the 96-well V base plate in 100 μL/well. […] The mixture was added into the cells in 100 μL/well; and incubation was performed on ice for 30 min in a standing manner, then 250×g was taken to perform centrifugation for 5 min, and supernatant was discarded in a sucking manner. After washing was performed for 2 times with the 1×FCM buffer, iFluor™633GAM fluorescent secondary antibodies (ATT bioquest) diluted by the 1×FCM buffer (dilution ratio being 1:400) were added in 100 μL/well; and incubation was performed on ice for 30 min. After 250×g was taken to perform centrifugation for 5 min, supernatant was discarded in a sucking manner. After washing was performed for 2 times with the 1×FCM buffer, the cells were resuspended by adding the 1×PBS in 100 μL/well; and the flow cytometer (Beckman, CytoFLEX) was used for detection.

Test [2] deals with T2, human ICOSLG protein (Acrobiosystem), hICOSLGhFc (human, UniProt O75144 19-258, limits assumed).
T2 construct: Bought; also called B7-H2; not shown: human Fc
T2 sequence (looked up): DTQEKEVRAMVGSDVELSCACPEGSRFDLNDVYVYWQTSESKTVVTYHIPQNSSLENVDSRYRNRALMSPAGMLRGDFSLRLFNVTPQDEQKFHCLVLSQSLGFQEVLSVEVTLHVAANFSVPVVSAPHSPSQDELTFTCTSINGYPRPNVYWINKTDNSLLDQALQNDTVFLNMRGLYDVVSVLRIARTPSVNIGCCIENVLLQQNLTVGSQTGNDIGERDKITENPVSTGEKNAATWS
The test can be described thus: ELISA on coated hICOSLG hFc. Here is the method: (§1) Supernatant was discarded; a blocking solution (1×PBS+1% BSA) was added in 200 μL/well; and blocking was performed for 1 h at 37° C. […] Washing was performed for 3 times with the 1×PBS. HRP-labeled goat anti-mouse IgG (sigma A0168-1ML) was added in 100 μL/well; incubation was performed for 30 min at 37° C. in a standing manner; and after washing was performed for 3 times with the 1×PBS, a color reaction was performed.

Test [3] concerns the target T3, human B7-H3 protein (Acrobiosystem), hB7-H3 hFc (human, UniProt Q5ZPR3-2 29-245, limits assumed).
T3 construct: Bought; not shown: human Fc
T3 sequence (looked up): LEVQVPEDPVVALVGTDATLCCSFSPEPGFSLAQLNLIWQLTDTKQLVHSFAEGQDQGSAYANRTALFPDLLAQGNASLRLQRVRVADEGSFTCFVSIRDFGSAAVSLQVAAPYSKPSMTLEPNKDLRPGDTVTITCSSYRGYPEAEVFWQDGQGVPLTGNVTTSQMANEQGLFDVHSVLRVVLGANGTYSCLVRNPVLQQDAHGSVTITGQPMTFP
Nature of the test: ELISA on coated hB7-H3 hFc. Here is the method:
as §1

T1 sequence (Q9NZQ7 19-290): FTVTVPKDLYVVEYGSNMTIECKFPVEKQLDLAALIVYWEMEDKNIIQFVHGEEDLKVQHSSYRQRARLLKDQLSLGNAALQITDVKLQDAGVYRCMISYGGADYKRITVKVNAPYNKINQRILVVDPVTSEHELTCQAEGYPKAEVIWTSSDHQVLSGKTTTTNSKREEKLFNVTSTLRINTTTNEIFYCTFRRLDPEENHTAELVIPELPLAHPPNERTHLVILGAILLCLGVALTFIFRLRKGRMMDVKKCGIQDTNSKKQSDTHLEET

B1: F016-21 (antibody, V domains shown)
VH: EVQLQQSGPELVKPGASVKMSCKASGYTFTDYVMHWVKQKPGQGLEWIGYINPYNDGTKFNEKFKGKATLTSDKSSSTAYMELSSLTSEDSAVYYCAKQTLDYWGQGTSVTVSS
VL: DIVLTQSPASLAVSLGQRATISCRASESVEYFGTTLMQWYQQRPGQPPKLLIYAASNVESGVPARFSGSGSGTDFSLNIHPVEEDDIAMYFCQQSRKVPYTFGGGTKLEIKR
notes: Mouse hybridoma monoclonal antibody purified from clone supernatant; also called anti-human PD-L1 antibody F016-21
As for B1, the EC50 in test [1] came to 151 pM. The binding result in test [2] and in test [3] was “no binding (tested: 10 µg/mL)” each time.
